This is an account of results in patent publication US20230280343A1 (NEW YORK UNIVERSITY, published 2023).

This assay addresses T1, SARS-CoV-2 spike receptor binding domain (RBD) (SARS-CoV-2, UniProt P0DTC2 319-541).
T1 construct: domain: RBD

Turning to GDLAPQMLRELQETNAALQDVRELLRQQVKEITFLKNTVMECDACGKLN (other, also called parent protein C; ccCOMP) [coiled-coil domain of the cartilage oligomeric matrix protein (C)], the binding result was “no binding”.
